Experimental data published in US20160194388A1 (WASHINGTON UNIVERSITY, published 2016).

Key:
[1] = molecular target: T1, peptide comprising amino acids 145-162 of 14-3-3 epsilon SV (human); assay: ELISA, peptide coated, 7D4 at 5 µg/ml
T1 construct: Synthetic 18-mer (Sigma), coated on the ELISA plate
T1 peptide: HPIRLGLALNFSVFYYEI
Procedure: (§1) Two batches of purified anti 14-3-3 epsilon monoclonal antibody 7D4 were used for testing all 31 peptides by ELISA. Three concentrations of each peptide had been used for coating ELISA plate at 30, 15, 10 μg/mL, 50 μl/each well were reacted against diluted purified antibodies at same concentration in all assay. Similar results were obtained for each peptide concentration coated on the ELISA plate.
(§2) Human 14-3-3 Protein epsilon and its isoform SV whole amino acid sequences were obtained through UniProtKB/Swiss-Prot. The Taxonomic identifier 9606 (NCBI) organism is Homosapiens (Human), Gene name is YWHAE. Peptide designed from whole sequences of 14-3-3 protein epsilon and its isoform 14-3-3 protein epsilon SV. The designed peptides contain 18AA from N terminal to C terminal and had 2AA overlapped in each peptide. A total of 31 peptides synthesized by Sigma. The synthesized peptide was prepared in DMSO and then further diluted in PBS for coating an ELISA plate. 30 μg/ml and 10 μg/ml of peptides in PBS were coated on ELISA plates, 50 μL/well. The plates incubated overnight at 4° C., were washed with 0.1% Tween20 PBS and blocked with 3% BSA in same buffer for 1 hour. […] After washing again, substrate ABTS was added to each well to monitor color change by reading at 405 nm in an ELISA reader (Bio-Tek Instrument Inc.). […]

[2] = molecular target: T2, peptide comprising amino acids 177-194 of 14-3-3 epsilon isoform 1 (human); assay: ELISA, peptide coated, 7D4 at 5 µg/ml
T2 construct: Synthetic 18-mer (Sigma), coated on the ELISA plate
T2 peptide: FSVFYYEILNSPDRACRL
Procedure: as §1, §2

[3] = molecular target: T3, human 14-3-3 epsilon isoform 1 (human, UniProt P62258 1-255); assay: flow cytometry on H23 cells
T3 construct: Endogenous protein of H23 human lung cancer cells; Mass spectrometry of the about 27 kDa band identified it as 14-3-3 epsilon, 255 amino acids; also called 14-3-3 protein epsilon; YWHAE
T3 sequence: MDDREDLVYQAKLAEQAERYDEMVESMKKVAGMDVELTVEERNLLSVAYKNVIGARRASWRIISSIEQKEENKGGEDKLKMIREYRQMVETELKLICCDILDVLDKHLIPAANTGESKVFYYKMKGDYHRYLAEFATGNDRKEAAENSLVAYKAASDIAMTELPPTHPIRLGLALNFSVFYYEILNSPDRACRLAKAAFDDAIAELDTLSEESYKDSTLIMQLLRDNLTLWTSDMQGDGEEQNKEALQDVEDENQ
Procedure: H23 cells were treated with radiation, 3Gy×3 or 0Gy sham. Cells were then treated with blocking buffer followed by the addition of the 7D4 anti-14-3-3 epsilon monoclonal antibody. Cells were then washed and stained with the secondary antibody conjugated to the fluorescent marker Alexa Fluor 488. Commercial rabbit anti-human 14-3-3 epsilon antibody was used as positive control. Negative controls included 7D4 without secondary antibody and normal mouse IgG with secondary antibody. Shown in FIG. 5 is the percentage of cells staining positive with the anti-14-3-3 antibodies as measured by flow cytometry (FACS).

[4] = molecular target: T3, human 14-3-3 epsilon isoform 1; assay: FMAT on H23 cells, hybridoma supernatant

binding result [1]: binds
binding result [2]: binds
fold increase in the percentage of cells staining positive after 3Gy×3 [3]: 20 fold
fold increase in binding on 3Gy×3 treated against sham 0Gy treated tumor cells [4]: 6 fold
B1: anti-14-3-3 epsilon mouse monoclonal antibody 7D4 (antibody, V domains shown)
VH: QVQLQQSGAELMKPGASVKISCKATGYTFSSYWIEWVKQRPGHGLEWIGEILPGSGSTNYNEKFKGKATFTADTSSNTAYMQLSSLTSEDSAVYYCARSVWLRRDFAYWGQGTLVTVSA
VL: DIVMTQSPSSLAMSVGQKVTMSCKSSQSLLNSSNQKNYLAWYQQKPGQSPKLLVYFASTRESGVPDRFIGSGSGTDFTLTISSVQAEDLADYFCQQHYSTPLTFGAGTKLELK
notes: also called McAb 7D4; 7D4 mAb
